Test results: patent US6475791B1, “Uses for DNA structure-specific recognition protein” (Massachusetts Institute of Technology, priority 1988, dated 2002)

How the values were obtained:
[1] = system: h-mtTFA (mitochondrial transcription factor A) (Homo sapiens); assay: inhibition
HMG1 = assay: inhibition; conditions: cisplatin 1,2-d(GpG) intrastrand crosslink; inhibition of excision repair by HeLa CFE at 1 uM HMG1 (20% at 0.5 uM); 8 mM MgCl2, 2 mM ATP, 30 C
[2] = system: cellular SSRP in human (HeLa) and hamster (V79) cell extracts; conditions: cited from earlier work
[3] = system: yeast ixr-1 null mutant strain; conditions: Brown et al. (1993); cited from earlier work
[4] = system: cisplatin 1,3-d(GTG) intrastrand adduct (1,3-GTG), excision by human excinuclease; assay: Exinuclease excision repair of the 1,3-intrastrand cisplatin lesion by HeLa cell-free extract, with or without HMG-box protein; assay type: biochemical; conditions: for percent inhibition of repair, 1,3-GTG adduct: 30 min, 30° C, average of two experiments
Method: (§1) Exinuclease substrates with defined cisplatin lesions Nucleic acid fragments (oligomers) bearing a 1,2-d(G^G) or a 1,3-d(GTG) cisplatin crosslink at a defined site were prepared essentially according to the method of Shi et al. (1987), 15 Nucleic Acids Res. 6843, by ligation of a mixture of a cisplatin-lesioned dodecamer with seven other oligonucleotides to produce 156 bp fragments. Prior to ligation, lesioned dodecamers were labeled with [γ-^32P]ATP such that the detectable radiolabel would be located at the 4th phosphodiester bond 5′ to the 1,3-intrastrand d(GTG) lesion, or the 5th phosphodiester bond 5′ to the 1,2-intrastrand d(G^G) lesion. Thus, the radiolabel would be included in the 27-29 nucleotide fragment spanning the cisplatin lesion that would be released by exinuclease. Full length (156 bp) exinuclease substrate oligomers were isolated on a 5% polyacrylamide/8 M urea denaturing gel and reannealed.
(§2) Exinuclease reaction. The excision reaction buffer contained 40 mM Hepes, pH 7.9, 80 mM KCl, 8 mM MgCl2, 2 mM ATP, 20 μM of each dNTP, 1 mM dithiothreitol, 0.3 mM EDTA, 6.8% (v/v) glycerol, and 200 μg/ml bovine serum albumin. The reaction mixture (50 μl) contained 100 μg of CFE (in cases of complementation, 50 μg of each of the XP CFE) and 30 pM DNA substrate (specific activity 7000 Ci/mmol), plus 250 ng pBR322 as carrier DNA. The excision reaction was carried out varying lengths of time at 30° C. Following proteinase K digestion, DNA exinuclease reaction products were extracted by phenol/chloroform and precipitated with ethanol. Equal amounts of DNA were loaded onto each lane.
(§3) The radiolabeled substrates bearing specific 1,2- and 1,3-intrastrand cisplatin lesions and the HeLa cell-free extract described above in Example 1 were used.
(§4) Gel Mobility Shift Assay. The 25 μl reaction mixtures contained 30 pM substrate and 0, 1, 2, 4 or 8 μM HMG1. Mixtures were incubated at 30° C. for 10 min. Samples (1.5 μl) of the mixtures were withdrawn and adjusted to 15% (v/v) glycerol, and electrophoretically resolved on a 5% native polyacrylamide gel. Results were visualized by autoradiography.
(§5) Exinuclease reaction in the presence of HMG1. Following withdrawal of the above samples for gel mobility shift analysis, 50 μg of HeLa CFE was added to each of the reaction mixtures and incubation was continued for 30 min at 30° C. as described in Example 1. Reactions were stopped and DNA reaction products were retrieved and analyzed as described in Example 2.
(§6) An exinuclease inhibition study was carried out generally as described in Example 3, using 0, 0.5 or 1.0 μM concentrations of HMG1 or h-mtTFA in parallel incubations.

[5] = system: cisplatin 1,2-d(G^G) intrastrand adduct (1,2-GG), excision by human excinuclease; assay: Exinuclease excision repair of the 1,2-intrastrand cisplatin lesion by HeLa cell-free extract, with or without HMG-box protein; assay type: biochemical; conditions: for percent inhibition of repair, 1,2-GG adduct: 30 min, 30° C, average of two experiments
Method: as §1, §2, §3, §4, §5, §6

[6] = 90 min, HeLa CFE, no inhibitor, over 20 independent assays

156 bp duplex with site-specific cisplatin 1,2-d(GpG) intrastrand crosslink
activity ([1]; cisplatin 1,2-d(GpG) intrastrand crosslink, inhibition of excision repair at 0.5 uM h-mtTFA (100% at 1 uM)): 95 % inhibition | activity (HMG1): 40 % inhibition

156 bp duplex with site-specific cisplatin 1,3-d(GTG) intrastrand crosslink
activity ([1]; cisplatin 1,3-d(GpTpG) intrastrand crosslink, inhibition of excision repair at 1 uM h-mtTFA (40% at 0.5 uM)): 75 % inhibition

[Cl-].[NH-]CC[N-]CC[NH-].[Pt+4] [chloro(diethylenetriamine)platinum(II)]
cellular SSRP binding to double stranded probe DNA bearing lesions produced by the compound [2]: did not bind

NC1CCCCC1N.[Cl][Pt][Cl] (stereo not drawn) [cis-dichloro(1,2-diaminocyclohexane)platinum(II)]
cellular SSRP binding to double stranded probe DNA bearing lesions produced by the compound [2]: bound

NCCN.[Cl][Pt][Cl] [cis-dichloro(ethylenediamine)platinum(II)]
cellular SSRP binding to double stranded probe DNA bearing lesions produced by the compound [2]: bound

N.N.[Cl][Pt][Cl] [cisplatin, cis-diamminedichloroplatinum(II), reference compound]
sensitivity of ixr-1 null yeast to cisplatin killing relative to parent (wildtype Ixr-1) strain [3]: two-fold less sensitive | cellular SSRP binding to double stranded probe DNA bearing lesions produced by the compound [2]: bound | range of excision of the 1,3-d(GTG) crosslink [4, 6]: 2.3-8% | range of excision of the 1,2-d(G^G) crosslink [5, 6]: 1-8%

N.N.[Cl][Pt+2][Cl] [transplatin]
cellular SSRP binding to double stranded probe DNA bearing lesions produced by the compound [2]: did not bind

B1: h-mtTFA: human mitochondrial transcription factor A, an HMG domain protein (protein, UniProt Q00059 43-246, looked up)
Transcription factor A, …: SSVLASCPKKPVSSYLRFSKEQLPIFKAQNPDAKTTELIRRIAQRWRELPDSKKKIYQDAYRAEWQVYKEEISRFKEQLTPSQIMSLEKEIMDKHLKRKAMTKKKELTLLGKPKRPRSAYNVYVAERFQEAKGDSPQEKLKTVKENWKNLSDSEKELYIQHAKEDETRYHNEMKSWEEQMIEVGRKDLLRRTIKKQRKYGAEEC
percent inhibition of repair, 1,3-GTG adduct ([4]; 0.5 μM protein, HeLa CFE): 40% | percent inhibition of repair, 1,3-GTG adduct ([4]; 1 μM protein, HeLa CFE): 75% | percent inhibition of repair, 1,2-GG adduct ([5]; 0.5 μM protein, HeLa CFE): 95% | percent inhibition of repair, 1,2-GG adduct ([5]; 1 μM protein, HeLa CFE): 100%

B2: HMG1: Recombinant HMG1 protein purified from an E. coli overproducing strain; HMG domain protein (protein, UniProt P09429 1-215, looked up)
High mobility group protein B1: MGKGDPKKPRGKMSSYAFFVQTCREEHKKKHPDASVNFSEFSKKCSERWKTMSAKEKGKFEDMAKADKARYEREMKTYIPPKGETKKKFKDPNAPKRPPSAFFLFCSEYRPKIKGEHPGLSIGDVAKKLGEMWNNTAADDKQPYEKKAAKLKEKYEKDIAAYRAKGKPDAAKKGVVKAEKSKKKKEEEEDEEDEEDEEEEEDEEDEDEEEDDDDE
percent inhibition of repair, 1,3-GTG adduct ([4]; 0.5 μM protein, HeLa CFE): 0% | percent inhibition of repair, 1,3-GTG adduct ([4]; 1 μM protein, HeLa CFE): 0% | effect on excision of the 1,3-crosslink ([4]; HMG1 concentrations up to about 4 μM, inhibited at higher concentrations, FIG. 5): modestly stimulated | percent inhibition of repair, 1,2-GG adduct ([5]; 1 μM protein, HeLa CFE): 40% | effect on excision of the cisplatin 1,2-intrastrand crosslink ([5]; escalating concentrations of purified HMG1 (0-8 μM), FIG. 5): monotonically inhibited
